21 sequences from the DeepSol protein solubility set can be followed below.

The nature of this series: soluble on expression in E. coli; label from the status in PepcDB or PDB records.
In the case of “MTPHVMKRDGCKVPFKSERIKEAILRAAKAAEVDDADYCATVAAVVSEQMQGRNQVDINEIQTAVENQLMSGPYKQLARAYIEYRHDRDIEREKRGRLNQEIRGLVEQTNASLLNENANKDSKVIPTQRDLLAGIVAKHYARQHLLPRDVVQAHERGDIHYHDLDYSPFFPMFNCMLIDLKGMLTQGFKMGNAEIEPPKSISTATAVTAQIIAQVASHIYGGTTINRIDEVLAPFVTASYNKHRKTAEEWNIPDAEGYANSRTIKECYDAFQSLEYEVNTLHTANGQTPFVTFGFGLGTSWESRLIQESILRNRIAGLGKNRKTAVFPKLVFAIRDGLNHKKGDPNYDIKQLALECASKRMYPDILNYDQVVKVTGSFKTPMGCRSFLGVWENENGEQIHDGRNNLGVISLNLPRIALEAKGDEATFWKLLDERLVLARKALMTRIARLEGVKARVAPILYMEGACGVRLNADDDISEIFKNGRASISLGYIGIHETINALFGGEHVYDNEQLRAKGIAIVERLRQAVDQWKEETGYGFSLYSTPSENLCDRFCRLDTAEFGVVPGVTDKGYYTNSFHLDVEKKVNPYDKIDFEAPYPPLANGGFICYGEYPNIQHNLKALEDVWDYSYQHVPYYGTNTPIDECYECGFTGEFECTSKGFTCPKCGNHDASRVSVTRRVCGYLGSPDARPFNAGKQEEVKRRVKHLGNGQIG”, the “soluble on expression in E. coli” value is reported as “not soluble”.

As for “MSLKVLKKEELVPTLYQLFSQAKEKVLVVSAWIRGSIFKELLSLLPENVQLEVIVRAGNLSDMDITDEAFFRETKKKGGRILLNPKLHSKFLIIDERYAVVGSSNITFMGLYPEGNVETNVLIEEKEKVKELLEFYENLKEESVDYTDVVGYAVSSRSPKEAEIVLLEDLKEQTYLGIQGEEFFLCRLSNVSGKKETREDALNRILSSEVWDWKVAALFAHLYERPEIKTGRLEILGEYEKERNLFKTPTKSVESGSLVKKLEPESEELKRILFKNHSGYDMKYPTYLGKLYNTEVKAYLDMDKVLGMHMAVLGTTGSGKTTFVKKILKNFKESEVIIFDIYGEYAQELGAKEVIVENVLMPISVEDVKDYLKEAGSTLEERSTEEKEFFSVFRRALKPDIEATELKEKSFKEIYEEAVKNLHSLHLKQDAQSVYEHLERTYSRGALEQQPKVLKEVVDFLNSEERVKVFNFKEVDITETKVNLTGLILKEIFIRAKKDRKPRLIVIEEAQNVAPERGTGDVPSGKENVAFVYAKKIAMEGRKLNLGLIAITQRPANLSKFILSQLNTQVIFKLITKNDLDAVSPFFEYSKEDIFRLLPFLKPGTAFVSGLAVPFSFLFQMEEIPYYEGHHHHHH”, the “soluble on expression in E. coli” value is on record as “not soluble”.

For “MKRILLSLLAMATLVGCGSKDDNNPTPPQRPDFTKEQQNYLPTKKVKHVTATYVEADYENGSYPSVQYKDFLNPELNQGQKFTVKTMEYFYEYDNAGRITKVTFKREGDSDIVSTLTYSNISVTITSPPPYDGIREPRSIEYGLNSSGNILSLGVYNEKQQLKNSMSAGTFTWENDNLTKISRKVTRNGVVKERGVKFSYNSATNKNKFYLLDHTGDDIRSYQEYFALSIAIIKGAAPKNLPIEATPLEENDSYSSRFERPVSFSYTFDGDEFVKTITEKENKFVPGSLYSYVPNNGNNEIGTYWNELQTLIANIENKTVTNKSYKLISDDGSTRIFEITVPVKVEKDSNGKTINLNVNKVCKFTVSYNNTSATDIRMEATYYADIITNYELNY”, the “soluble on expression in E. coli” value is “not soluble”.

Take “MTGLINAIPATNKDEYKNVGVYIEHRGDELKRPSIEMIGIGKQLARKVNEKLICVVIGDKVDGIAKEVGEYGCDIVLAAESPELAEYRTMPYAEIIGGYIQEYKPNIFLLAATRNGRDLASRIAVKSRTGITADCTVLDIDENRTLLANRPTYGESTLAEILCRNHRPQMATARPGIFPPAEKEKDHKYEVIKKKVDVDKKLLGKQILKFI”: the “soluble on expression in E. coli” value was “not soluble”.

On to “AQGRQPRTETLHAERRAAGAWLAKRMGLEDSAPVYFLQRRRWVDERPVLIELIALDAGWCPGLLDHDLDTSLMSLLRERFGLQPTRCQLAMHPTALNAAQAEPLQLAPGSPALYLERLSYAEGQRVVEFDQEFWRPDALEIVLDAAYPGA”, for which the “soluble on expression in E. coli” value is given as “soluble”.

On to “MDYNVKDFGALGDGVSDDRASIQAAIDAAYAAGGGTVYLPAGEYRVSAAGEPGDGCLMLKDGVYLAGAGMGETVIKLIDGSDQKITGMVRSAYGEETSNFGMRDLTLDGNRDNTSGKVDGWFNGYIPGGDGADRDVTIERVEVREMSGYGFDPHEQTINLTIRDSVAHDNGLDGFVADYLVDSVFENNVAYANDRHGFNVVTSTHDFVMTNNVAYGNGSSGLVVQRGLEDLALPSNILIDGGAYYDNAREGVLLKMTSDITLQNADIHGNGSSGVRVYGAQDVQILDNQIHDNAQAAAVPEVLLQSFDDTAGASGTYYTTLNTRIEGNTISGSANSTYGIQERNDGTDYSSLIDNDIAGVQQPIQLYGPHSTVSGEP”, for which the “soluble on expression in E. coli” value is “soluble”.

In the case of “MAEIFRIPEEKFRDKVHKSLEENVTWVERETGRLPSYEEVEEFLVEEFSKVIPFEGEEPVPEEAIELADKLKEEFTSEEVLLEDTGRKHRAIKLREGVYLRTAVHKAQGGLIRTEVYTDGEVIERVKIYGDFTLYPKESLKELEEKLKGIKFEPEEIKKVAHEFLQKVDMPGVSAEDLVIAIYG”, the “soluble on expression in E. coli” value was “soluble”.

In the case of “MIRQTLWSDVAAPLQNAFQTNNSGNRPVLMMLGGYTFSLASLVYQELARVNEYRWAAIERYGQRDARQYTGPGDESIELPGIAYPDWQGQRASLDELRALAAQGKPLQLIDSNGLIHGWYVIERIEERQSDHHPNGTPRRIEFTLALQRVNDDHAVEATP”, the “soluble on expression in E. coli” value is given as “not soluble”.

On to “MSMIDIDPPSFQSPRPIAGDDGNRRTVLYGDYTVFSVFQPVFSVSHRRAIGYHASLRAHDSQGNQVPSHDVFTQAARRGDLLELGRLAESLHLGNFHTFDSHDEWLFLSLHPAALMDTVYGDALLANLKALGLPPQRVVLEVPEQAGGETPRFAAIVDGLRKAGFLIALGGFGAKHSNIDRVWHLHPDIVTLDRGILAQASEHSHLERVLPGLVSLLHESGQLVLMGGITTEREALIALECDVDFVQGQYFAGP”, for which the “soluble on expression in E. coli” value is on record as “not soluble”.

For “FGQYLAIRRTDALLRQQLDTLTIDTLSELEGKLPVKSNSLVIAYIRRVLESKDRPAHVQRLLADFEITADKDLAISKTLTKMGP”, the “soluble on expression in E. coli” value is “not soluble”.

Turning to “MGGGKYETQMCVIIIEDIFGKIVAKVMETILKESCQLSTLFYKLKGQISNTLIRKSVSTLINFGFVTFHLDTNNRTTYVADSDQIQHVISSPRACLIAKTLYGPAAESICVELISQGRLTVSETIRRIQATDETAVFSDIKKSFEELAAAHFLIRVPSVESEIHGCPQFVTNFDPFAISTNIMEKKEGTSTSDSTSNNRKRKADSTPEDGDAGQYWRINWIRFNGYLRDELIIDYLIGGGSKGTMTNLNVKKEETIEDPQGDRTQYITQNVAHLMFKINETRAKPMSMESITASLTDLQRLVKENGLNLAKPDIELACQILVDESDGIIRKLGESNGGIFIVDIRRAIRQICRHHCESLIREQFEGRAIRVMRLLENRHYLDEEQVEKLSMMSGKEAREMLYALVEEGYVFNKPVGRSNDFQPARTFYLYYVDLPRTIRGLVEYTCKLVRNLIVRQRHERTENKSVLDKDANVQPIIENIRSSEQLDEASKLAQIAEVEEMYLPGPDRAQLNRFRKAQATLLAAQDQSIRVLLSFKLFLASGEN”, the “soluble on expression in E. coli” value is given as “not soluble”.

Consider “MEENTKEMIVIDSVDRYNEIFGLETRHPLVSIIDLAKSTTWPTRAWFRYEVYALYLKNVKCGDIKYGRQYYDYQDGTIVCFAPGQITDLEMLPNIQPNAHGILFHPDLIRGTALGQEIKKYSFFSYETNEALHISEEERQTVMDCLQKITIELEHSIDKHSRRLICANIGLLLDYCMRFYERQFDTRNGVNKDIIVRFEHLLNEYFEGDAPQNQGLPSVKYFADKVFLSANYFGD”, for which the “soluble on expression in E. coli” value is “not soluble”.

As for “MGSDKIHHHHHHMKKQWNEFVRDRMSEKNLKQEDIAEAIERTQGAVGHWLTGRRSPNFMEVAKMLNATGTDQVILNSDGTIEDIEFIGIPKKGLVKVIGEATMGTDGSVDIEEIHVGYIDIFTTDPKAFCLRVKGSSMEPRIHSGEFVLVEPQSPFSNGDDVFIRTKDGKNMIKILDYQKDGEYRFSSINNDHKPFNLAIDEVELVYYVAGILKKSRFVDLEP”, the “soluble on expression in E. coli” value was “not soluble”.

With “MSLSQPNFYQRTHIPYTAYTPEIFQEFVDDYIDSLNSSFVPVKGIHEEQVRDEAVKLYNQLSDSLGVHRPPFPNPRVKTMVFTPFISMVGVTGSMGPFFCEFTLNGDLLPINYPATYTHELAHLLGISSEAEANFYAYQVCTRSQIKGIRFSGYFSILNHVLGNARRLLSEKEYADIINRIRPEIIELAKKNQEYWMAKYSPLIGDVQNWIYDLYLKGNKIESGRKNYSEVIGLLISYQVWKAKTASDEGHHHHHH”, the “soluble on expression in E. coli” value is listed as “soluble”.

Turning to “MGHHHHHHSHMEKCSVGGLELTEQTPALLGNMAMATSLMDIGDSFGHPACPLVSRSRNSPVEDDDDDDDVVFIESIQPPSISAPAIADQRNFIFASSKNEKPQGNYSVIPPSSRDLASQKGNISETIVIDDEEDIETNGGAEKKSSCFIEWGLPGTKNKTNDLDFSTSSLSRSKTKTGVRPFNPGRMNVAGDLFQNGEFATHHSPEMHLQRRLMSFFQ”, the “soluble on expression in E. coli” value is “soluble”.

Consider “MKTNREQEIYVERSFKPNNSTIQNLMDIERFILPHTSTSGVARLKMRVISWVGLQFYNY”, for which the “soluble on expression in E. coli” value is “soluble”.

“MIMHIPKSTYYHKWFIGATLVVPVLPLAAQTSPNLVFIMADQYRGDALGCLGKEPVKTPCLDHLASEGVLFTNAVSSYPVSSPARAMLMTGMYPLHNKVTGNCNSQTAPYGVELPQEARCWSDVLKDMNYRTGYIGKWHLDSPYKPYVDTYNNRGKVAWNEWCPPERRHGFEYWTAYGTYDYHLKPMYWDTTAPRDSFYYVNQWGPAYEADKAIEYIQTQKENKQPFALVVSMNPPHTGYELVPDKYKALYKDIDVEALCAHRPDIPAKGTEMGNYFRNNIRNYYACITGVDEQVGRIIETLKSNGLFENTIIVFTSDHGICMGAHNNAGKDIFYEEAMRIPMIISWPAKIKPRKDDHLMIAFADLYPSLLSLMGFRKEIPETVQTFDLSRHILGKSKKEVVQPYYYVQFDNHATGYRGLRTSTHTFAVHATNGKIDETVLFDRTKDPYQMDNIAGQSPRLVRQFNKQLKAWLLHTNDSFAHYLETVTK”: the “soluble on expression in E. coli” value is recorded as “not soluble”.

With “MGSDKIHHHHHHMIQHKPDLIFLDINLPDINGIDFAEQVQSILPEVHIVFITAYDEYAVKAFELNAIDYVMKPVQRDRLNRTINRITDRKTVEPLRSQTDSKIISCFQTLHFQKGSEIGKAEPIDVNWRTAKARELFAYLVQHRKQPVRKDVLLEFFWPESDVKKGYAQLYSAIYQIRKMLDSLQMNSTVVSFDKSYKLHLNGTKLDVEEWERELRQLPNITEDTLPSYRRLLETYKGDYLAEEAYLWAENERERLRTLYHSTFNKVTTYYLECGYYTDAITLCQRVQTLHPLMETSYFLLMQVYAKMGDNHSVKSQYEKLNHVLEAEYGIHTSDSIENWYNEWKKQLQ”, the “soluble on expression in E. coli” value is given as “not soluble”.

On to “MANTPGGGALIVGIEDKTGRIIGTELDIDWLRQGIFTRIDVAPDVVAKRVLGQRVLAIYVAAAAEPIEDTSDRLRWRVGDSCRPVDLEHHHHHH”, for which the “soluble on expression in E. coli” value is recorded as “not soluble”.

In the case of “MSEKLKIVYRPLQELSPYAHNARTHSTEQVAQLVESIKQFGWTNPVLIDEKGEIIAGHGRVMAAEMLKMDSVPVIVLSGLTDEQKQR”, the “soluble on expression in E. coli” value is recorded as “soluble”.

Regarding “AIAGCASAKHVSTVQNEDDAQNGKNYQNGDAFCDEYRIKPVEEVKYMKNGEEEEQKILSKNQENLVSCLEEKSATHTARSKSNTEAAGAGHPYRINIHISESQQEFFRMLDEKIEKGRDYCSEEEDIT”, the “soluble on expression in E. coli” value is “soluble”.
